Measurements published in US20230086603A1 (BOLT BIOTHERAPEUTICS, published 2023).

Tests used:
[1] = target: T1, human PD-L1 (hPD-L1) (human, UniProt Q9NZQ7 19-290); assay: flow cytometry on JIMT-1 cells expressing endogenous human PD-L1; anti-human IgG Fc secondary; geometric MFI
T1 construct: Endogenous hPD-L1 on JIMT1 (JIMT-1) cells; also called programmed death-ligand 1; CD274
Description: Binding of the binding agents of an embodiment of the invention to human PD-L1 (hPD-L1) on cell surfaces was assessed by incubating the binding agents with JIMT1 cells that express endogenous hPD-L1. Briefly, the binding agents were diluted serially in FACS buffer (PBS+1% FBS+5 mM EDTA, pH 7.4) at 4° C. Diluted binding agents were applied to JIMT1 cells (˜1×10⁵-2×10⁵ per well) and incubated at 4° C. […] After unbound secondary antibody was washed out, cells were resuspended in FACS buffer plus 2% formaldehyde and analyzed by flow cytometry. The intensity of fluorescence, expressed as geometric mean fluorescence intensity, was used to determine anti-PDL1 binding agent binding to hPD-L1 on cell surface.

[2] = target: PD-L1 on CHO-K1/PD-L1/alphaAPC stimulator cells (UniProt Q9NZQ7 19-290, limits assumed); assay: cell-based or functional assay
Sequence of PD-L1 on CHO-K1/PD-L1/alphaAPC stimulator cells (Q9NZQ7 19-290 limits assumed): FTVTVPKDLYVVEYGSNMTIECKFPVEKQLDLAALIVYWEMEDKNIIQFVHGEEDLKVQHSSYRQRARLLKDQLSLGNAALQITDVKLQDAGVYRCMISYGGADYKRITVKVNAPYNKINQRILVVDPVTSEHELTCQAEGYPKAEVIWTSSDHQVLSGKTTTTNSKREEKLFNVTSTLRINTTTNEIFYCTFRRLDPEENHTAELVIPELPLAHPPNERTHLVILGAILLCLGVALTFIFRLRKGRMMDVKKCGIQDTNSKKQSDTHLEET

T1 sequence (Q9NZQ7 19-290 limits assumed): as above

| binding result [1] | EC50 (nM), PD-L1/PD-1 blockade, luciferase reporter cells [2] | EC50 (ng/ml), PD-L1/PD-1 blockade, luciferase reporter cells [2] | Binder |
| --- | --- | --- | --- |
| binds | – | – | 68 (antibody, V domains shown) VH: QVQLVQSGAEVKKPGASVKVSCKASGYTFTGYYMHWVRQAPGQGLEWMGWINPNSGTTGYAQNFQGRVTMTRDTSTSTVYMELSSLRSEDTAVYYCAREGFGPNAFDIWGQGTTVTVSS VL: DIQMTQSPSSLSASVGDRVTITCRASQSISSWLAWYQQKPGKAPKLLIYAASNLQSGVPSRFSGSGSGTDFTLTISSLQPEDFATYYCQQYYSTPYTFGQGTKVEIK |
| binds | – | – | 67 (antibody, V domains shown) VH: QVQLVQSGAEVKKPGASVKVSCKASGYTFSTHYMHWVRQAPGQGLEWMGWINPNSGHAGSAQKFQGRVTMTRDTSTSTVYMELSSLRSEDTAVYYCARESIAVAGYDYWGQGTLVTVSS VL: DIQMTQSPSSLSASVGDRVTITCRASQSISSWLAWYQQKPGKAPKLLIYAASTLQRGVPSRFSGSGSGTDFTLTISSLQPEDFATYYCQQSYSTPYTFGQGTKLEIK |
| binds | – | – | 5 (antibody, V domains shown) VH: QVQLVQSGAEVKKPGASVKVSCKASGYTFNRFMHWVRQAPGQGLEWMGWMSLNSGLTGYAQKFQGRVTMTRDTSTSTVYMELSSLRSEDTAVYYCTRGTYNDAFDIWGQGTLVTVSS VL: DIQMTQSPSSLSASVGDRVTITCRASQTISNYLNWYQQKPGKAPKLLIYAASSLQSGVPSRFSGSGSGTDFTLTISSLQPEDFATYYCQQSYTTPITFGGGTKVEIK |
| binds | – | – | 4 (antibody, V domains shown) VH: QVQLVQSGAEVKKPGASVKVSCKASGYTFTSHHMHWVRQAPGQGLEWMGWVSPSHGLTGYAQKFQGRVTMTRDTSTSTVYMELSSLRSEDTAVYYCARDNWNVHDAFDIWGQGTLVTVSS VL: DIQMTQSPSSLSASVGDRVTITCRASQGISSYLAWYQQKPGKAPKLLIYGASNLQSGVPSRFSGSGSGTDFTLTISSLQPEDFATYYCQQSYSTPLTFGGGTKVEIK |
| binds | – | – | 70 (antibody, V domains shown) VH: QVQLVQSGAEVKKPGASVKVSCKASGYTFTDHYLHWVRQAPGQGLEWMGWINPNIGNTGYAQKFQGRVTMTRDTSTSTVYMELSSLRSEDTAVYYCAREPLQLGGFDYWGQGTLVTVSS VL: DIQMTQSPSSLSASVGDRVTITCRASESISSWLAWYQQKPGKAPKLLIYAASSLQSGVPSRFSGSGSGTDFTLTISSLQPEDFATYYCQQSYSTPLTFGQGTKLEIK |
| binds | – | – | 35 (antibody, V domains shown) VH: QVQLVQSGAEVKKPGASVKVSCKASGYPFSSYYMHWVRQAPGQGLEWMGMINPSGGSTSYAQKFQGRVTMTRDTSTSTVYMELSSLRSEDTAVYYCARDIFPTMIAGGGFDLWGRGTLVTVSS VL: DIQMTQSPSSLSASVGDRVTITCRASQSISSWLAWYQQKPGKAPKLLIYDASNLETGVPSRFSGSGSGTDFTLTISSLQPEDFATYYCQQSYSTPPTFGQGTKVEIK |

The next lines start with the binder.

| Binder | binding result [1] | EC50 (nM), PD-L1/PD-1 blockade, luciferase reporter cells [2] | EC50 (ng/ml), PD-L1/PD-1 blockade, luciferase reporter cells [2] |
| --- | --- | --- | --- |
| 37 (antibody, V domains shown) VH: QVQLVQSGAEVKKPGASVKVSCKASGYTFTSYGINWVRQAPGQGLEWMGWMNPNSGNTGYAQKFQGRVTMTRDTSTSTVYMELSSLRSEDTAVYYCARGSFPLVFTIFGVGDVWGQGTMVTVSS VL: DIQMTQSPSSLSASVGDRVTITCRSSQGIRNDLSWYQQKPGKAPKLLIYLASNSHSGVPSRFSGSGSGTDFTLTISSLQPEDFATYYCLQHNSYPLTFGGGTKVEIK | binds | – | – |
| 66 (antibody, V domains shown) VH: QVQLVQSGAEVKKPGASVKVSCKASGYTFSSYYMHWVRQAPGQGLEWMGWITTNSGITGYAQKFQGRVTMTRDTSTSTVYMELSSLRSEDTAVYYCAREGYSSGLDYWGQGTLVTVSS VL: not shown | binds | – | – |
| 33 (antibody, V domains shown) VH: QVQLVQSGAEVKKPGASVKVSCKASGYTFTRHFIHWVRQAPGQGLEWMGWIDPNSGVTSSAQKFQGRVTMTRDTSTSTVYMELSSLRSEDTAVYYCARELSRWGFDYWGPGTMVTVSS VL: EIVMTQSPATLSVSPGERATLSCRASQTVSSNYLAWYQQKPGQAPRLLIYGASTRASGIPARFSGSGSGTEFTLTISSLQSEDFAVYYCQQYYTTPLTFGGGTKVEIK | binds | – | – |
| 6 (antibody, V domains shown) VH: QVQLVQSGAEVKKPGASVKVSCKASGYTFTSYYIHWVRQAPGQGLEWMGWMKPSSGTTGYAQKFQGRVTMTRDTSTSTVYMELSSLRSEDTAVYYCAREQWLVNDAFDIWGQGTLVTVSS VL: EIVMTQSPATLSVSPGERATLSCRASQSVDRNYVTWYQQKPGQAPRLLIYGASTRATGIPARFSGSGSGTEFTLTISSLQSEDFAVYYCQQSYTTPYTFGQGTKVEIK | binds | – | – |
| 34 (antibody, V domains shown) VH: QVQLVQSGAEVKKPGASVKVSCKASGYTFTRHLLHWVRQAPGQGLEWMGWISPQHGVRNYAHKFQGRVTMTRDTSTSTVYMELSSLRSEDTAVYYCARESVEGYFDLWGRGTLVTVSS VL: not shown | binds | – | – |
| 69 (antibody, V domains shown) VH: QVQLVQSGAEVKKPGASVKVSCKASGYTFTSYYMHWVRQAPGQGLEWMGWINPNSGNTGYAQKFQGRVTMTRDTSTSTVYMELSSLRSEDTAVYYCARDDWGGDWFDYWGQGTLVTVSS VL: DIQMTQSPSSLSASVGDRVTITCQASQDISNHLNWYQQKPGKAPKLLIYGASNLQRGVPSRFSGSGSGTDFTLTISSLQPEDFATYYCQQSYSTPITFGQGTRLEIK | binds | – | – |
| PD-L1 binding agent 10 (antibody, V domains shown) VH: QVQLVQSGAEVKKPGASVKVSCKASGYTFTGYYMHWVRQAPGQGLEWIGWMSLNSGLTGYAQKFQGRVTMTRDTSTSTVYMELSSLRSEDTAVYYCARDRGWFDPWGQGTLVTVSS VL: DIQMTQSPSSLSASVGDRVTITCRASQSISSWLAWYQQKPGKAPKLLIYAASTLESGVPSRFSGSGSGTDFTLTISSLQPEDFATYYCQQSYTTPYSFGGGTKVEIK | – | 2.02 nM | 291 ng/mL |
| PD-L1 binding agent 21 (antibody, V domains shown) VH: QVQLVQSGAEVKKPGASVKVSCKASGYTFTSHYMHWVRQAPGQGLEWMGWMNPNSGHTGNAQKFQGRVTMTRDTSTSTVYMELSSLRSEDTAVYYCARGNWVDAFDIWGQGTMVTVSS VL: DIQMTQSPSSLSASVGDRVTITCRASQGIRNDLAWYQQKPGKAPKLLIYAASTLQSGVPSRFSGSGSGTDFTLTISSLQPEDFATYYCQQSYSTPLTFGGGTKVEIK | – | 0.9 nM | 129 ng/mL |
